Measurements reported in publication PMC4731314 (Cell reports, 2016).

Target: the molecule itself
Experiment: AUC

B1: full-length Imp2 purified from S. pombe (natural protein, UniProt Q10199 1-670, looked up)
chain: MSQQLSFNASSAKPDKSFSNYFWGANDEGYHALLSRFSDVKHINEELRSFYHERANIEEDYAKRMAKLSRTTFSSLETGCLKESVQVMKAEVDNMAKSHLQISQLLQDDVENAFTRYAASLKDKKKMIVSGIEKVHKDKLSKHQALVKAQDKYHYLCKKVNYYVSQQNMLFGKELEKNNAKLNKTQNAITASSSDYQSAVAAVRDSYARWTNEWRSTCDKLQDIEEERRHFLKSVMWTFTLLISRSCFNDDQACERIRKNLEQCSVSQDVLEFIDAKSTGTGIPQPPKFYDYYKGEVPDDSVELVQANFQRAQTKIENDNMPLNRPYVLSATARNESSFENTLPNTPSAIQSLTTVSSNSSQNGRSSPKKSFLSKFKLTSRPSTPNVGNTAPDALSSPRNDSPLTSAADEQMKHLSLQEEPKQNPTPAAPGAFPNSNTLPPRYNELGSLPSPNSVSFTEDSRPNVNTPSRRQQIQEEFGSVLQMENRAVSPVYDSRKNGSRSSFTLRKSRSPKRPSSSLSQNASRLPRSLTPGNLEPNYDFGVRVDPASGTAPTDDEPYTDRDSSFVDDTINTKATGNTSNRLSLPAYPTDGGDTSIDNPTSTDGQRILGYVSALYDYDAAIPEEISFRKGDTIAVLKLYEDGWWEGFVVGEDDHNRGQFPSNFVREIEV
binding result: binds

B2: Imp2(Dimer-Dimer-4A) purified from S. pombe (natural protein, UniProt Q10199 1-670, looked up)
chain: MSQQLSFNASSAKPDKSFSNYFWGANDEGYHALLSRFSDVKHINEELRSFYHERANIEEDYAKRMAKLSRTTFSSLETGCLKESVQVMKAEVDNMAASHLAISQLLQDAVENAFTAYAASLKDKKKMIVSGIEKVHKDKLSKHQALVKAQDKYHYLCKKVNYYVSQQNMLFGKELEKNNAKLNKTQNAITASSSDYQSAVAAVRDSYARWTNEWRSTCDKLQDIEEERRHFLKSVMWTFTLLISRSCFNDDQACERIRKNLEQCSVSQDVLEFIDAKSTGTGIPQPPKFYDYYKGEVPDDSVELVQANFQRAQTKIENDNMPLNRPYVLSATARNESSFENTLPNTPSAIQSLTTVSSNSSQNGRSSPKKSFLSKFKLTSRPSTPNVGNTAPDALSSPRNDSPLTSAADEQMKHLSLQEEPKQNPTPAAPGAFPNSNTLPPRYNELGSLPSPNSVSFTEDSRPNVNTPSRRQQIQEEFGSVLQMENRAVSPVYDSRKNGSRSSFTLRKSRSPKRPSSSLSQNASRLPRSLTPGNLEPNYDFGVRVDPASGTAPTDDEPYTDRDSSFVDDTINTKATGNTSNRLSLPAYPTDGGDTSIDNPTSTDGQRILGYVSALYDYDAAIPEEISFRKGDTIAVLKLYEDGWWEGFVVGEDDHNRGQFPSNFVREIEV
stoichiometry N: 2
